Measured values as given in publication PMC7368258 (Proceedings of the National Academy of Sciences of the …, 2020).

Columns and labels:
FRET or BRET = target: the molecule itself; test: FRET or BRET
SEC = target: the molecule itself; test: SEC

Protein | stoichiometry N (FRET or BRET) | stoichiometry N (SEC)
mCER-Prx2(C51S), expressed in HEK293 cells (natural protein) MASGNARIGKPAPDFKATAVVDGAFKEVKLSDYKGKYVVLFFYPLDFTFVSPTEIIAFSNRAEDFRKLGCEVLGVSVDSQFTHLAWINTPRKEGGLGPLNIPLLADVTRRLSEDYGVLKTDEGIAYRGLFIIDGKGVLRQITVNDLPVGRSVDEALRLVQAFQYTDEHGEVCPAGWKPGSDTIKPNVDDSKEYFSKHN | 10 | –
mCER-Prx2(T82E/A85E), expressed in HEK293 cells (natural protein) MASGNARIGKPAPDFKATAVVDGAFKEVKLSDYKGKYVVLFFYPLDFTFVCPTEIIAFSNRAEDFRKLGCEVLGVSVDSQFEHLEWINTPRKEGGLGPLNIPLLADVTRRLSEDYGVLKTDEGIAYRGLFIIDGKGVLRQITVNDLPVGRSVDEALRLVQAFQYTDEHGEVCPAGWKPGSDTIKPNVDDSKEYFSKHN | 2 | –
recombinant mCER-Prx2 (natural protein) MASGNARIGKPAPDFKATAVVDGAFKEVKLSDYKGKYVVLFFYPLDFTFVCPTEIIAFSNRAEDFRKLGCEVLGVSVDSQFTHLAWINTPRKEGGLGPLNIPLLADVTRRLSEDYGVLKTDEGIAYRGLFIIDGKGVLRQITVNDLPVGRSVDEALRLVQAFQYTDEHGEVCPAGWKPGSDTIKPNVDDSKEYFSKHN | – | 10
recombinant mCER-Prx2(C51S) (natural protein) MASGNARIGKPAPDFKATAVVDGAFKEVKLSDYKGKYVVLFFYPLDFTFVSPTEIIAFSNRAEDFRKLGCEVLGVSVDSQFTHLAWINTPRKEGGLGPLNIPLLADVTRRLSEDYGVLKTDEGIAYRGLFIIDGKGVLRQITVNDLPVGRSVDEALRLVQAFQYTDEHGEVCPAGWKPGSDTIKPNVDDSKEYFSKHN | – | 10
recombinant mCER-Prx2(C172S) (natural protein) MASGNARIGKPAPDFKATAVVDGAFKEVKLSDYKGKYVVLFFYPLDFTFVCPTEIIAFSNRAEDFRKLGCEVLGVSVDSQFTHLAWINTPRKEGGLGPLNIPLLADVTRRLSEDYGVLKTDEGIAYRGLFIIDGKGVLRQITVNDLPVGRSVDEALRLVQAFQYTDEHGEVSPAGWKPGSDTIKPNVDDSKEYFSKHN | – | 2
